# Patent US7067277B1, “Chimeric G proteins and uses thereof” (H. Lundbeck A/S, priority 1999, dated 2006)
# B1: cGαq/s9: C. elegans Gαq backbone with 9 C-terminal amino acids of Gαs (SEQ ID NO: 3) (protein)
# chain: MACCLSEEAREQKRINQEIEKQLQRDKRNARRELKLLLLGTGESGKSTFIKQMRIIHGQGYSEEDKRAHIRLVYQNVFMAIQSMIRAMDTLDIKFGNESEELQEKAAVVREVDFESVTSFEEPYVSYIKELWEDSGIQECYDRRREYQLTDSAKYYLSDLRRLAVPDYLPTEQDILRVRVPTTGIIEYPFDLEQIIFRMVDVGGQRSERRKWIHCFENVTSIMFLVALSEYDQVLVECDNENRMEESKALFRTIITYPWFTNSSVILFLNKKDLLEEKILYSHLADYFPEYDGPPRDPIAAREFILKMFVDLNPDADKIIYSHFTCATDTENIRFVFAAVKDTILQMHLRQYELL
# modifications: C. elegans
# Tests used:
# h D1 = target: T1, h D1 (Homo sapiens, UniProt P21728); assay: Calcium mobilization (FLIPR, Fluo-3) in transfected COS-7 cells; assay type: cell-based; conditions: h D1 + chimera in COS-7; agonist DA, max 100 μM
# T1 construct: expressed in transfected cells; host or cells: COS-7
# Experimental: (§1) COS-7 cells were cultured in 225 cm^2 flasks in Dulbecco's Modified Eagle Medium (DMEM) with supplements (10% bovine calf serum, 4 mM glutamine, 100 units/ml penicillin and 100 μg/ml streptomycin) at 37° C., 5% CO2. Stock plates of COS-7 cells were trypsinized and split 1:6 every 3–4 days.
# For evaluating the function of a single chimeric G protein, the standard cDNA transfection ratio was 1:1 (10 μg GPCR cDNA and 10 μg chimeric G protein cDNA). For evaluating the function of a mixture of chimeric G proteins, the standard cDNA transfection ratio was 8:1:1 (16 μg GPCR cDNA, 2 μg Gαq/z cDNA, 2 μg Gαq/s cDNA).
# Twenty four hours after transient transfection, COS-7 cells were seeded into 96-well black wall microtiter plates coated with poly-D-lysine for assay the following day. […] After excess dye was discarded, cells were washed in assay buffer and layered with a final volume equal to 100 μl/well. Basal fluorescence was monitored in a fluorometric imaging plate reader (FLIPR™, Molecular Devices) with an excitation wavelength of 488 nm and an emission range of 500 to 560 nm. Laser excitation energy was adjusted so that basal fluorescence readings were approximately 10,000 relative fluorescent units. Cells were stimulated with agonists diluted in assay buffer (50 μl), and relative fluorescent units were measured at defined intervals (exposure=0.4 sec) over a 3 min period at room temperature. Maximum change in fluorescence was calculated for each well. Concentration-response curves derived from the maximum change in fluorescence were analyzed by nonlinear regression (Hill equation).
# h D5 = h D5 (Homo sapiens, UniProt P21918); assay: as above; assay type: cell-based; conditions: h D5 + chimera in COS-7; agonist DA, max 100 μM
# Experimental: as §1
# (§2) GPCR and chimeric G protein cDNAs were transiently transfected into COS-7 cells in 150 cm^2 flasks by the DEAE-dextran method (Cullen, 1987), using a total of 20 μg of DNA/˜7×10^6 cells. For evaluating the function of a single chimeric G protein, the standard cDNA transfection ratio was 1:1 (10 μg GPCR cDNA and 10 μg chimeric G protein cDNA). For evaluating the function of a mixture of chimeric G proteins, the standard cDNA transfection ratio was 8:1:1 (16 μg GPCR cDNA, 2 μg Gαq/z cDNA, 2 μg Gαq/s cDNA).
# (§3) Twenty four hours after transient transfection, COS-7 cells were seeded into 96-well black wall microtiter plates coated with poly-D-lysine for assay the following day. Just prior to assay, culture medium was aspirated and cells were dye-loaded with 4 μM Fluo-3/0.01% pluronic acid in assay buffer composed of Hank's Balanced Salt Solution (138 mM NaCl, 5 mM KCl, 1.3 mM CaCl2, 0.5 mM MgCl2, 0.4 mM MgSO4, 0.3 mM KH2PO4, 0.3 mM Na2HPO4, 5.6 mM glucose) plus 20 mM HEPES (pH 7.4), 0.1% BSA and 2.5 mM probenicid (100 μl/well) for 1 hour in 5% CO2 at 37° C. After excess dye was discarded, cells were washed in assay buffer and layered with a final volume equal to 100 μl/well. Basal fluorescence was monitored in a fluorometric imaging plate reader (FLIPR™, Molecular Devices) with an excitation wavelength of 488 nm and an emission range of 500 to 560 nm. Laser excitation energy was adjusted so that basal fluorescence readings were approximately 10,000 relative fluorescent units. Cells were stimulated with agonists diluted in assay buffer (50 μl), and relative fluorescent units were measured at defined intervals (exposure=0.4 sec) over a 3 min period at room temperature. Maximum change in fluorescence was calculated for each well. Concentration-response curves derived from the maximum change in fluorescence were analyzed by nonlinear regression (Hill equation).
# h 5HT7 = h 5HT7 (Homo sapiens, UniProt P34969); assay: as above; assay type: cell-based; conditions: h 5HT7 + chimera in COS-7; agonist 5HT, max 100 μM
# Experimental: as §1, §2, §3
# h GLP-1 = h GLP-1 (Homo sapiens, UniProt P43220); assay: as above; assay type: cell-based; conditions: h GLP-1 + chimera in COS-7; agonist GLP-1, max 10 μM
# Experimental: as §1, §2, §3
# h 5HT4 = h 5HT4 (Homo sapiens, UniProt Q13639); assay: as above; assay type: cell-based; conditions: h 5HT4 + chimera in COS-7; agonist 5HT, max 100 μM
# Experimental: as §1, §2, §3
# h β2 adr = h β2 adr (Homo sapiens, UniProt P07550); assay: as above; assay type: cell-based; conditions: h β2 adr + chimera in COS-7; agonist NE, max 100 μM
# Experimental: as §1, §2, §3
# h 5HT6 = h 5HT6 (Homo sapiens, UniProt P50406); assay: as above; assay type: cell-based; conditions: h 5HT6 + chimera in COS-7; agonist 5HT, max 100 μM
# Experimental: as §1, §2, §3
# [1] = test system: panel of 7 Gαs-coupling receptors; assay: Detection rate in COS-7 calcium mobilization over Gαs-coupling GPCR; assay type: cell-based, human; conditions: COS-7, stimulated with appropriate agonists
# Experimental: as §1
# as §2, with “For evaluating the function of a mixture of chimeric G proteins, the standard cDNA transfection ratio was 8:1:1 (16 μg GPCR cDNA, 2 μg Gαq/z cDNA, 2 μg Gαq/s cDNA).” left out
# Twenty four hours after transient transfection, COS-7 cells were seeded into 96-well black wall microtiter plates coated with poly-D-lysine for assay the following day. […] Basal fluorescence was monitored in a fluorometric imaging plate reader (FLIPR™, Molecular Devices) with an excitation wavelength of 488 nm and an emission range of 500 to 560 nm. Laser excitation energy was adjusted so that basal fluorescence readings were approximately 10,000 relative fluorescent units. Cells were stimulated with agonists diluted in assay buffer (50 μl), and relative fluorescent units were measured at defined intervals (exposure=0.4 sec) over a 3 min period at room temperature. Maximum change in fluorescence was calculated for each well. […]
# Chain of h 5HT7 (P34969 whole entry): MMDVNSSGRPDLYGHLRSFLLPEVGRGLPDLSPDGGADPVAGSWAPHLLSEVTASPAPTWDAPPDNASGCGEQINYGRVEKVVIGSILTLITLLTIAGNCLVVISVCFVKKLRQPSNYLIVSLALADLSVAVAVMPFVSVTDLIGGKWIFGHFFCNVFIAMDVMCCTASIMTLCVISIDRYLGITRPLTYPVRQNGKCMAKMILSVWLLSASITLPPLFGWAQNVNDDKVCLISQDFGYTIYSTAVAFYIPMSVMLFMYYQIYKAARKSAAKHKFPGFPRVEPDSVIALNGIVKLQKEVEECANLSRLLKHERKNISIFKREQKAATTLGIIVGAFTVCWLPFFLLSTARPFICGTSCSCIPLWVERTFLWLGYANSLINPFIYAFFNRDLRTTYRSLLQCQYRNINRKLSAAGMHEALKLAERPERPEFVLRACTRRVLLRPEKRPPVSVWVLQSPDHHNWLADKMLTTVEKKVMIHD
# Chain of h 5HT6 (P50406 whole entry): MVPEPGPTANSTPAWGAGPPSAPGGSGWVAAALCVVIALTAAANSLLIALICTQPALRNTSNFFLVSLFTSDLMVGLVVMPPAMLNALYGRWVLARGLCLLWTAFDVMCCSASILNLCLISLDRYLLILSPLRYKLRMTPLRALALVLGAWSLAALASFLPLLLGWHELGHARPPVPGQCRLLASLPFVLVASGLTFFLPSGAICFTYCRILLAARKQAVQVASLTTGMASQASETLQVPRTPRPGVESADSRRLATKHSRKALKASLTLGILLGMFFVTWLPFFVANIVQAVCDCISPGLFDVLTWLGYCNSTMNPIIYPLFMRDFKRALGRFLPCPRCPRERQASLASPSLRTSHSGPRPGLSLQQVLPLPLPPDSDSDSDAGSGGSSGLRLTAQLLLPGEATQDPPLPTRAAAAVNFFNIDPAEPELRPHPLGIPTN
# Chain of h D5 (P21918 whole entry): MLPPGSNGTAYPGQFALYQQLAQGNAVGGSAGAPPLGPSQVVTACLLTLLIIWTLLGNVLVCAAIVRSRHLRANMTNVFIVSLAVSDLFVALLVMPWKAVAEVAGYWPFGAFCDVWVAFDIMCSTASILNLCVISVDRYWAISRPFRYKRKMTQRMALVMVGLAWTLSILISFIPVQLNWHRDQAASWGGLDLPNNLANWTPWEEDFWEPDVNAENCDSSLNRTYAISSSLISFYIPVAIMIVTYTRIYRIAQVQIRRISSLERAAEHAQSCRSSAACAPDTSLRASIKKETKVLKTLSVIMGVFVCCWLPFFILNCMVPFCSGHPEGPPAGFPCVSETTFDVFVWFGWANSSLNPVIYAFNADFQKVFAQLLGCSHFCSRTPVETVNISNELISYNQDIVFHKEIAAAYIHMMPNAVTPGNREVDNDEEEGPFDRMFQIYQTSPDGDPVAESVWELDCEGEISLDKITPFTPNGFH
# Chain of h 5HT4 (Q13639 whole entry): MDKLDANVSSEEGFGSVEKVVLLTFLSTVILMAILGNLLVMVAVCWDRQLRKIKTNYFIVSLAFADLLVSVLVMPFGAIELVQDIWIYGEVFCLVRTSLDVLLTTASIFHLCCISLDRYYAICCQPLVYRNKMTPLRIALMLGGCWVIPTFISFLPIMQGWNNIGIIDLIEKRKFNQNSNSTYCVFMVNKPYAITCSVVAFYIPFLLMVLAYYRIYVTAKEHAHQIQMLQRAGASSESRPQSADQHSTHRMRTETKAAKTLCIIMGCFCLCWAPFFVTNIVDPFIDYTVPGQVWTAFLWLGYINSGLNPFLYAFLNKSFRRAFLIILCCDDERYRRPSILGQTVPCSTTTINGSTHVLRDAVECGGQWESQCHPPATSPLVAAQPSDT
# T1 sequence (P21728 whole entry): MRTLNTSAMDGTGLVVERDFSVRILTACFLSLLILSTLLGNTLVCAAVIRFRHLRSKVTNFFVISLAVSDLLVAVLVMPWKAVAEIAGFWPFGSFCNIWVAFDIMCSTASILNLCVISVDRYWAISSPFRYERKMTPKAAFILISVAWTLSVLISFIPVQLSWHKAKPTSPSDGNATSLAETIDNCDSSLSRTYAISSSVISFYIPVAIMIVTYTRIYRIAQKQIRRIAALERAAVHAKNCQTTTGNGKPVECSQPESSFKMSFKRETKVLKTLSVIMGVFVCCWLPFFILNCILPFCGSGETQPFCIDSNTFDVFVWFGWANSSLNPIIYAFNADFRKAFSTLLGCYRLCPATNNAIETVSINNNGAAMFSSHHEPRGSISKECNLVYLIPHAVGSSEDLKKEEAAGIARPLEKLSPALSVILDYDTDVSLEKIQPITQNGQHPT
# Chain of h GLP-1 (P43220 24-463): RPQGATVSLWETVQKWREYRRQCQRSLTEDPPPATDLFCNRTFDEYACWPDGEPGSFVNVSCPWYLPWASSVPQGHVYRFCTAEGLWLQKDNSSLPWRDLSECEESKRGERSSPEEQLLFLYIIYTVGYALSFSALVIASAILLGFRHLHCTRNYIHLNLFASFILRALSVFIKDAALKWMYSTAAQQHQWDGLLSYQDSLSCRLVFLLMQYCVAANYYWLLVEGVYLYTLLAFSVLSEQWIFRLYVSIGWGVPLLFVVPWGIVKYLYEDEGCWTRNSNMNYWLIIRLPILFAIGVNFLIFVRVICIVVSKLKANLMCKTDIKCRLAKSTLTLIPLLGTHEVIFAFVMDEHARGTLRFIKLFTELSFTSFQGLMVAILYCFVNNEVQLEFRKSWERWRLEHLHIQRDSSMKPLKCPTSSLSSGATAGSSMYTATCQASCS
molecule,measurement,setting,value
B1,MAXIMAL SIGNAL (FLUORESCENCE UNITS),h D1,8692 fluorescence units
same,MAXIMAL SIGNAL (FLUORESCENCE UNITS),h D5,1870 fluorescence units
same,MAXIMAL SIGNAL (FLUORESCENCE UNITS),h 5HT7,387 fluorescence units
same,MAXIMAL SIGNAL (FLUORESCENCE UNITS),h GLP-1,2461 fluorescence units
same,MAXIMAL SIGNAL (FLUORESCENCE UNITS),h 5HT4,1701 fluorescence units
same,MAXIMAL SIGNAL (FLUORESCENCE UNITS),h β2 adr,3106 fluorescence units
same,MAXIMAL SIGNAL (FLUORESCENCE UNITS),h 5HT6,1639 fluorescence units
same,Gαs-coupling receptors generating positive responses (>500 fluorescence units) / receptors tested,[1],6/7
same,percent of Gαs-coupling receptors generating positive responses (>500 fluorescence units),[1],81%
